Experimental data as given in patent US20200115430A1 (I2O THERAPEUTICS, published 2020).
Starred links: 1 amine or outer side, 2 acyl side, 3 side chain; linkers in the order of their positions; H or OH if unused. Positions of bridges follow the written chain, without caps; N, C: chain ends. Groups on a side chain read outwards from the residue. No end group written: not given here. *: point of attachment. C20 diacid = O=C(O)CCCCCCCCCCCCCCCCCCC(=O)*; C17 diacid = O=C(O)CCCCCCCCCCCCCCCC(=O)*; C16 diacid = O=C(O)CCCCCCCCCCCCCCC(=O)*; γGlu = O=C(O)[C@H](CCC(=O)[*:2])N[*:1]

T1: human calcitonin receptor (human, UniProt P30988 25-474)
T1 sequence (looked up): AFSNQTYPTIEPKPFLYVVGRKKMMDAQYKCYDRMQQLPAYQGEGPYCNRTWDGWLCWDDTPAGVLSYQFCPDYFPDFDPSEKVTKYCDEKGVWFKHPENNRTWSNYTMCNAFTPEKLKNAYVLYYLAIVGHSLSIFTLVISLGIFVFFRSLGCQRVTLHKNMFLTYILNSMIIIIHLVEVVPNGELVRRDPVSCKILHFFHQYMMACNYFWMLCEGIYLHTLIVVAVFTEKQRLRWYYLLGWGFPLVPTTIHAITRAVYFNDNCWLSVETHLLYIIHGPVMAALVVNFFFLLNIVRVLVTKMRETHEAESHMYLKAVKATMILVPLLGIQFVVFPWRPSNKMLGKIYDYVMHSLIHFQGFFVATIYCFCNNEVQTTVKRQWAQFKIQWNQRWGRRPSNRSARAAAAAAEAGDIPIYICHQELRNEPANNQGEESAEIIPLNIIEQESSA

T2: human amylin 3 receptor (human, UniProt P30988 25-474; O60896 24-148)
T2 sequence (looked up) 1: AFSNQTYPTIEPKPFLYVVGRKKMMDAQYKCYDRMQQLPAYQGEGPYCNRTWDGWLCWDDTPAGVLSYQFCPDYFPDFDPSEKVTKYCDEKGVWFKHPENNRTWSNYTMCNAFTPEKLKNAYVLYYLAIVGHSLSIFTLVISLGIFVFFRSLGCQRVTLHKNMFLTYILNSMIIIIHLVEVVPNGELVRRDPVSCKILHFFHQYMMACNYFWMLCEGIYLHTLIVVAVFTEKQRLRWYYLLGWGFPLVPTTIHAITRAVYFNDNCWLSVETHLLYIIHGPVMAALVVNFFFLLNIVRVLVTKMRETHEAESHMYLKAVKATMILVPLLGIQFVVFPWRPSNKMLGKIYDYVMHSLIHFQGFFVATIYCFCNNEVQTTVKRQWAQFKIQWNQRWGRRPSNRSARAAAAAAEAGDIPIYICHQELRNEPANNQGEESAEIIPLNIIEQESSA
T2 sequence (looked up) 2: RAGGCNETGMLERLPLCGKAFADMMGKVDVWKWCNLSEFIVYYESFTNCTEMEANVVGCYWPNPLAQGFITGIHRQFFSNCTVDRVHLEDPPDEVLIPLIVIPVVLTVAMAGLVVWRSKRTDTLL


Experiments:
[1] = biological target: T1, human calcitonin receptor; experiment: cell-based or functional assay
human amylin 3 receptor = biological target: T2, human amylin 3 receptor; experiment: cell-based or functional assay

Row | Binder | pEC50 (cAMP accumulation), 0% HSA [1] [pEC50] | pEC50 (cAMP accumulation), 0.1% HSA [1] [pEC50] | pEC50 (cAMP accumulation), 4% HSA [1] [pEC50] | pEC50 (cAMP accumulation), 0% HSA (human amylin 3 receptor) [pEC50] | pEC50 (cAMP accumulation), 0.1% HSA (human amylin 3 receptor) [pEC50] | pEC50 (cAMP accumulation), 4% HSA (human amylin 3 receptor) [pEC50]
1 | SCNTSTCATQRLANEK(C17 diacid)HKSSNNFGPILPPTKVGSETY-NH2 (disulfide 2-7; N-terminus assumed; SMILES CC[C@H](C)[C@H](NC(=O)[C@@H]1CCCN1C(=O)CNC(=O)[C@H](Cc1ccccc1)NC(=O)[C@H](CC(N)=O)NC(=O)[C@H](CC(N)=O)NC(=O)[C@H](CO)NC(=O)[C@H](CO)NC(=O)[C@H](CCCCN)NC(=O)[C@H](Cc1c[nH]cn1)NC(=O)[C@H](CCCCNC(=O)CCCCCCCCCCCCCCCC(=O)O)NC(=O)[C@H](CCC(=O)O)NC(=O)[C@H](CC(N)=O)NC(=O)[C@H](C)NC(=O)[C@H](CC(C)C)NC(=O)[C@H](CCCNC(=N)N)NC(=O)[C@H](CCC(N)=O)NC(=O)[C@@H](NC(=O)[C@H](C)NC(=O)[C@@H]1CSSC[C@H](NC(=O)[C@@H](N)CO)C(=O)N[C@@H](CC(N)=O)C(=O)N[C@@H]([C@@H](C)O)C(=O)N[C@@H](CO)C(=O)N[C@@H]([C@@H](C)O)C(=O)N1)[C@@H](C)O)C(=O)N[C@@H](CC(C)C)C(=O)N1CCC[C@H]1C(=O)N1CCC[C@H]1C(=O)N[C@H](C(=O)N[C@@H](CCCCN)C(=O)N[C@H](C(=O)NCC(=O)N[C@@H](CO)C(=O)N[C@@H](CCC(=O)O)C(=O)N[C@H](C(=O)N[C@@H](Cc1ccc(O)cc1)C(N)=O)[C@@H](C)O)C(C)C)[C@@H](C)O) [Compound A79] | 10.3 | 9.9 | 9.5 | 11.5 | 10.4 | 9.4
2 | SCNTSTCATQRLANEK(C20 diacid)HKSSNNFGPILPPTKVGSETY-NH2 (disulfide 2-7; N-terminus assumed; SMILES CC[C@H](C)[C@H](NC(=O)[C@@H]1CCCN1C(=O)CNC(=O)[C@H](Cc1ccccc1)NC(=O)[C@H](CC(N)=O)NC(=O)[C@H](CC(N)=O)NC(=O)[C@H](CO)NC(=O)[C@H](CO)NC(=O)[C@H](CCCCN)NC(=O)[C@H](Cc1c[nH]cn1)NC(=O)[C@H](CCCCNC(=O)CCCCCCCCCCCCCCCCCCC(=O)O)NC(=O)[C@H](CCC(=O)O)NC(=O)[C@H](CC(N)=O)NC(=O)[C@H](C)NC(=O)[C@H](CC(C)C)NC(=O)[C@H](CCCNC(=N)N)NC(=O)[C@H](CCC(N)=O)NC(=O)[C@@H](NC(=O)[C@H](C)NC(=O)[C@@H]1CSSC[C@H](NC(=O)[C@@H](N)CO)C(=O)N[C@@H](CC(N)=O)C(=O)N[C@@H]([C@@H](C)O)C(=O)N[C@@H](CO)C(=O)N[C@@H]([C@@H](C)O)C(=O)N1)[C@@H](C)O)C(=O)N[C@@H](CC(C)C)C(=O)N1CCC[C@H]1C(=O)N1CCC[C@H]1C(=O)N[C@H](C(=O)N[C@@H](CCCCN)C(=O)N[C@H](C(=O)NCC(=O)N[C@@H](CO)C(=O)N[C@@H](CCC(=O)O)C(=O)N[C@H](C(=O)N[C@@H](Cc1ccc(O)cc1)C(N)=O)[C@@H](C)O)C(C)C)[C@@H](C)O) [Compound A75] | 10.8 | 10 | 7.7 | 11.9 | 10.5 | 8.9

Continued, values first:

Row | pEC50 (cAMP accumulation), 0% HSA [1] [pEC50] | pEC50 (cAMP accumulation), 0.1% HSA [1] [pEC50] | pEC50 (cAMP accumulation), 4% HSA [1] [pEC50] | pEC50 (cAMP accumulation), 0% HSA (human amylin 3 receptor) [pEC50] | pEC50 (cAMP accumulation), 0.1% HSA (human amylin 3 receptor) [pEC50] | pEC50 (cAMP accumulation), 4% HSA (human amylin 3 receptor) [pEC50] | Binder
3 | 10.2 | 9.2 | 7.7 | 11.3 | 10.4 | 8.7 | SCNTSTCATQRLANEK([γGlu-C17 diacid])HKSSNNFGPILPPTKVGSETY-NH2 (disulfide 2-7; N-terminus assumed; SMILES CC[C@H](C)[C@H](NC(=O)[C@@H]1CCCN1C(=O)CNC(=O)[C@H](Cc1ccccc1)NC(=O)[C@H](CC(N)=O)NC(=O)[C@H](CC(N)=O)NC(=O)[C@H](CO)NC(=O)[C@H](CO)NC(=O)[C@H](CCCCN)NC(=O)[C@H](Cc1c[nH]cn1)NC(=O)[C@H](CCCCNC(=O)CC[C@H](NC(=O)CCCCCCCCCCCCCCCC(=O)O)C(=O)O)NC(=O)[C@H](CCC(=O)O)NC(=O)[C@H](CC(N)=O)NC(=O)[C@H](C)NC(=O)[C@H](CC(C)C)NC(=O)[C@H](CCCNC(=N)N)NC(=O)[C@H](CCC(N)=O)NC(=O)[C@@H](NC(=O)[C@H](C)NC(=O)[C@@H]1CSSC[C@H](NC(=O)[C@@H](N)CO)C(=O)N[C@@H](CC(N)=O)C(=O)N[C@@H]([C@@H](C)O)C(=O)N[C@@H](CO)C(=O)N[C@@H]([C@@H](C)O)C(=O)N1)[C@@H](C)O)C(=O)N[C@@H](CC(C)C)C(=O)N1CCC[C@H]1C(=O)N1CCC[C@H]1C(=O)N[C@H](C(=O)N[C@@H](CCCCN)C(=O)N[C@H](C(=O)NCC(=O)N[C@@H](CO)C(=O)N[C@@H](CCC(=O)O)C(=O)N[C@H](C(=O)N[C@@H](Cc1ccc(O)cc1)C(N)=O)[C@@H](C)O)C(C)C)[C@@H](C)O) [Compound A80]
4 | 9.8 | 9 | 7.8 | 10.8 | 10.1 | 8.7 | SCNTSTCATQRLANEK([γGlu-C16 diacid])HKSSNNFGPILPPTKVGSETY-NH2 (disulfide 2-7; N-terminus assumed; SMILES CC[C@H](C)[C@H](NC(=O)[C@@H]1CCCN1C(=O)CNC(=O)[C@H](Cc1ccccc1)NC(=O)[C@H](CC(N)=O)NC(=O)[C@H](CC(N)=O)NC(=O)[C@H](CO)NC(=O)[C@H](CO)NC(=O)[C@H](CCCCN)NC(=O)[C@H](Cc1c[nH]cn1)NC(=O)[C@H](CCCCNC(=O)CC[C@H](NC(=O)CCCCCCCCCCCCCCC(=O)O)C(=O)O)NC(=O)[C@H](CCC(=O)O)NC(=O)[C@H](CC(N)=O)NC(=O)[C@H](C)NC(=O)[C@H](CC(C)C)NC(=O)[C@H](CCCNC(=N)N)NC(=O)[C@H](CCC(N)=O)NC(=O)[C@@H](NC(=O)[C@H](C)NC(=O)[C@@H]1CSSC[C@H](NC(=O)[C@@H](N)CO)C(=O)N[C@@H](CC(N)=O)C(=O)N[C@@H]([C@@H](C)O)C(=O)N[C@@H](CO)C(=O)N[C@@H]([C@@H](C)O)C(=O)N1)[C@@H](C)O)C(=O)N[C@@H](CC(C)C)C(=O)N1CCC[C@H]1C(=O)N1CCC[C@H]1C(=O)N[C@H](C(=O)N[C@@H](CCCCN)C(=O)N[C@H](C(=O)NCC(=O)N[C@@H](CO)C(=O)N[C@@H](CCC(=O)O)C(=O)N[C@H](C(=O)N[C@@H](Cc1ccc(O)cc1)C(N)=O)[C@@H](C)O)C(C)C)[C@@H](C)O) [Compound A88]
